This is an account of results in patent US20070280985A1.

Among the targets are Connexin 40 (human) (UniProt P36382); Connexin 37 (human) (UniProt P35212); Connexin 43 (human) (UniProt P17302).
What all share (test): cell-based or functional assay

UniProt P17302, sequence (P17302 2-382): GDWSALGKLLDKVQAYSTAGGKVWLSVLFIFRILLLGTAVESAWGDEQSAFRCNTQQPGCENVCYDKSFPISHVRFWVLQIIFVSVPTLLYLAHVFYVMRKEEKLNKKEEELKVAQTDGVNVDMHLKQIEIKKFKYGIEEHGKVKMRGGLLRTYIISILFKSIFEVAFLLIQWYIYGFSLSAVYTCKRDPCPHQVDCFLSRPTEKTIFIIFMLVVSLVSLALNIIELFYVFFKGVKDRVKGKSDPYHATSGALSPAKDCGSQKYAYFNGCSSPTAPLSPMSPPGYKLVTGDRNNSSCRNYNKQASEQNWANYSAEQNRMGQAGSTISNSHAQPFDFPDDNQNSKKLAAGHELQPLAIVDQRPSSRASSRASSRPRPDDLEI
UniProt P36382, sequence (P36382 whole entry): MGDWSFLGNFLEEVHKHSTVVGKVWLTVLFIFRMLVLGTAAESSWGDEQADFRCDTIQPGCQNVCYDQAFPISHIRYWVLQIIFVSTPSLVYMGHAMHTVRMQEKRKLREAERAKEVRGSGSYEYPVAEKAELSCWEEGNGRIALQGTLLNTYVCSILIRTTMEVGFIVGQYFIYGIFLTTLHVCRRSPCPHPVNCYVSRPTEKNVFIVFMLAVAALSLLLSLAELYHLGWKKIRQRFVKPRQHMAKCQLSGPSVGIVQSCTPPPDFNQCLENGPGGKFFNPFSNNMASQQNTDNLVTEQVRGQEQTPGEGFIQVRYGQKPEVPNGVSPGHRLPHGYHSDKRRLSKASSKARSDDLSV
UniProt P35212, sequence (P35212 whole entry): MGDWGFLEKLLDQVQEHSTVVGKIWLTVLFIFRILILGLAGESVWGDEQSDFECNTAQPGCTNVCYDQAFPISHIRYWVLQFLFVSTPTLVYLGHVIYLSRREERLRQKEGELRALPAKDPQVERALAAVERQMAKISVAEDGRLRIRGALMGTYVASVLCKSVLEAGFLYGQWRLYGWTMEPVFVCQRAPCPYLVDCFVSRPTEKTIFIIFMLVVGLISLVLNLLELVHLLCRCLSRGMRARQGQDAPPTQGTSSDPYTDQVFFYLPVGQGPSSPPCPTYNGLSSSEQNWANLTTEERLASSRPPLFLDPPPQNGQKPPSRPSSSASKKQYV

Regarding mimetic peptide 40Gap27, in the experiment with Connexin 40 (human), the decrease in Lucifer Yellow dye-coupling (GJIC) in HAEC after 5 hours of flow came to 33% and the decrease in Lucifer Yellow dye-coupling (GJIC) in HAEC after 16 hours of flow is 57%.

For the substance Cx mimetic peptide 43,37Gap27, the Lucifer Yellow dye-coupling (GJIC) in HAEC after 16 hours of flow in the experiment with Connexin 37 (human) and with Connexin 43 (human) was 26% throughout. The decrease in flow-induced GJIC (dye-coupling) in HAEC in the experiment with Connexin 37 (human) and in the experiment with Connexin 43 (human) was 25% each time.
